Test results from patent US20180148477A1 (published 2018).
Bridge positions count the residues as written; N and C are the ends. Square brackets hold non-standard residues; d marks the D form. Ends that are not written are not given here. 1Nal = N[C@@H](Cc1cccc2ccccc12)C(=O)O; 2Nal = N[C@@H](Cc1ccc2ccccc2c1)C(=O)O; d1Nal = N[C@H](Cc1cccc2ccccc12)C(=O)O; d2Nal = N[C@H](Cc1ccc2ccccc2c1)C(=O)O; NMeR = CN[C@@H](CCCNC(=N)N)C(=O)O; hPhe = N[C@@H](CCc1ccccc1)C(=O)O; Aic = NC1(C(=O)O)Cc2ccccc2C1; NMeK = CN[C@@H](CCCCN)C(=O)O; Pen = CC(C)(S)[C@H](N)C(=O)O; dNMeK = CN[C@H](CCCCN)C(=O)O; Dab = NCC[C@H](N)C(=O)O; Dap = NC[C@H](N)C(=O)O

Legend:
[1] = target: rh integrin α4β7 (R&D Systems #5397-A30) (human) (UniProt P13612); experiment: competition ELISA vs MAdCAM-1
[2] = target: human α4β7 integrin on cells (human) (UniProt P13612); experiment: RPMI8866 adhesion to MAdCAM-1
[3] = target: α4β1 (R&D Systems #5668-A4) (UniProt P13612); experiment: competition ELISA vs VCAM-1

B1: SEQ ID NO: 88 (peptide)
peptide: Ac-[Pen][NMeR]SDTL[Pen][2Nal][dK]-NH2
modifications: disulfide 1-7
SMILES: CC(=O)N[C@@H]1C(=O)N(C)[C@@H](CCCNC(=N)N)C(=O)N[C@@H](CO)C(=O)N[C@@H](CC(=O)O)C(=O)N[C@@H]([C@@H](C)O)C(=O)N[C@@H](CC(C)C)C(=O)N[C@H](C(=O)N[C@@H](Cc2ccc3ccccc3c2)C(=O)N[C@H](CCCCN)C(N)=O)C(C)(C)SSC1(C)C
With B1 the IC50 [1] was over 10 nM.

B2: SEQ ID NO: 8 (peptide)
peptide: Ac-[Pen][NMeR]SDTL[Pen][1Nal][dE][dK]-NH2
modifications: disulfide 1-7
SMILES: CC(=O)N[C@@H]1C(=O)N(C)[C@@H](CCCNC(=N)N)C(=O)N[C@@H](CO)C(=O)N[C@@H](CC(=O)O)C(=O)N[C@@H]([C@@H](C)O)C(=O)N[C@@H](CC(C)C)C(=O)N[C@H](C(=O)N[C@@H](Cc2cccc3ccccc23)C(=O)N[C@H](CCC(=O)O)C(=O)N[C@H](CCCCN)C(N)=O)C(C)(C)SSC1(C)C
B2 gave an IC50 [1] of over 25 nM.

B3: SEQ ID NO: 9 (peptide)
peptide: Ac-[Pen][NMeR]SDTL[Pen][2Nal][dE][dK]-NH2
modifications: disulfide 1-7
SMILES: CC(=O)N[C@@H]1C(=O)N(C)[C@@H](CCCNC(=N)N)C(=O)N[C@@H](CO)C(=O)N[C@@H](CC(=O)O)C(=O)N[C@@H]([C@@H](C)O)C(=O)N[C@@H](CC(C)C)C(=O)N[C@H](C(=O)N[C@@H](Cc2ccc3ccccc3c2)C(=O)N[C@H](CCC(=O)O)C(=O)N[C@H](CCCCN)C(N)=O)C(C)(C)SSC1(C)C
For B3, the IC50 [2] was over 100 nM and the IC50 [1] was over 10 nM.

B4: SEQ ID NO: 10 (peptide)
peptide: Ac-[Pen][NMeR]SDTL[Pen][d1Nal]E[dK]-NH2
modifications: disulfide 1-7
SMILES: CC(=O)N[C@@H]1C(=O)N(C)[C@@H](CCCNC(=N)N)C(=O)N[C@@H](CO)C(=O)N[C@@H](CC(=O)O)C(=O)N[C@@H]([C@@H](C)O)C(=O)N[C@@H](CC(C)C)C(=O)N[C@H](C(=O)N[C@H](Cc2cccc3ccccc23)C(=O)N[C@@H](CCC(=O)O)C(=O)N[C@H](CCCCN)C(N)=O)C(C)(C)SSC1(C)C
B4 gave an IC50 [1] of over 10 nM.

B5: SEQ ID NO: 11 (peptide)
peptide: Ac-[Pen][NMeR]SDTL[Pen][d2Nal]E[dK]-NH2
modifications: disulfide 1-7
SMILES: CC(=O)N[C@@H]1C(=O)N(C)[C@@H](CCCNC(=N)N)C(=O)N[C@@H](CO)C(=O)N[C@@H](CC(=O)O)C(=O)N[C@@H]([C@@H](C)O)C(=O)N[C@@H](CC(C)C)C(=O)N[C@H](C(=O)N[C@H](Cc2ccc3ccccc3c2)C(=O)N[C@@H](CCC(=O)O)C(=O)N[C@H](CCCCN)C(N)=O)C(C)(C)SSC1(C)C
B5 showed an IC50 [1] of over 25 nM.

B6: SEQ ID NO: 12 (peptide)
peptide: Ac-[Pen][NMeR]SDTL[Pen][1Nal][dE][dNMeK]-NH2
modifications: disulfide 1-7 (inferred)
B6 showed an IC50 [1] of over 25 nM.

B7: SEQ ID NO: 13 (peptide)
peptide: Ac-[Pen][NMeR]SDTL[Pen][2Nal][dE][dNMeK]-NH2
modifications: disulfide 1-7 (inferred)
With B7 the IC50 [2] was over 100 nM and the IC50 [1] was over 10 nM.

B8: SEQ ID NO: 138 (peptide)
peptide: Ac-[Pen][NMeR]SDTL[Pen][2Nal]E[NMeK]-NH2
modifications: disulfide 1-7 (inferred); also: homodimer via DIG
Binder B8 has an IC50 [2] of over 10 nM and an IC50 [1] of over 10 nM.

B9: SEQ ID NO: 143 (peptide)
peptide: [Pen][NMeR]SDTL[Pen][2Nal]E
modifications: disulfide 1-7 (inferred); not fully specified (bridges); printed as Cyclo-[Pen-N-Me-R-S-D-T-L-Pen-2-Nal-E], Pen-Pen disulfide
In the case of B9, the IC50 [2] is reported as over 10000 nM and the IC50 [1] is reported as 250 nM.

B10: SEQ ID NO: 15 (peptide)
peptide: Ac-[Pen][NMeR]SDTL[Pen][2Nal]E[dNMeK]-NH2
modifications: disulfide 1-7 (inferred)
In the case of B10, the IC50 [1] is reported as under 10 nM.

B11: SEQ ID NO: 18 (peptide)
peptide: Ac-[Pen][NMeR]SDTL[Pen][1Nal]E[dNMeK]-NH2
modifications: disulfide 1-7
SMILES: CC(=O)N[C@@H]1C(=O)N(C)[C@@H](CCCNC(=N)N)C(=O)N[C@@H](CO)C(=O)N[C@@H](CC(=O)O)C(=O)N[C@@H]([C@@H](C)O)C(=O)N[C@@H](CC(C)C)C(=O)N[C@H](C(=O)N[C@@H](Cc2cccc3ccccc23)C(=O)N[C@@H](CCC(=O)O)C(=O)N(C)[C@H](CCCCN)C(N)=O)C(C)(C)SSC1(C)C
B11 showed an IC50 [3] of over 500 nM and an IC50 [1] of over 10 nM.

B12: SEQ ID NO: 23 (peptide)
peptide: Ac-[Pen][NMeR]SDTL[Pen][2Nal]Y[dK]-NH2
modifications: disulfide 1-7; also: dimer via DIG
Binder B12 has an IC50 [3] of over 100 nM and an IC50 [2] of under 10 nM.

B13: SEQ ID NO: 29 (peptide)
peptide: Ac-[Pen][NMeR]SDTL[Pen][2Nal][dE][dK]-NH2
modifications: disulfide 1-7; also: dimer via DIG
Work on B13 yielded an IC50 [2] of over 10 nM and an IC50 [1] of under 10 nM.

B14: SEQ ID NO: 35 (peptide)
peptide: Ac-[Pen][NMeR]SDTL[Pen][d2Nal]E[dK]-NH2
modifications: disulfide 1-7; also: dimer via DIG
B14 was tested, and the IC50 [2] was over 100 nM.

B15: SEQ ID NO: 39 (peptide)
peptide: Ac-[Pen][NMeR]SDTL[Pen][2Nal][dE][dNMeK]-NH2
modifications: disulfide 1-7; also: dimer via DIG
Work on B15 yielded an IC50 [2] of over 10 nM.

B16: SEQ ID NO: 50 (peptide)
peptide: Ac-[Pen][NMeR]SDTL[Pen][2Nal][hPhe][dK]-NH2
modifications: disulfide 1-7
SMILES: CC(=O)N[C@@H]1C(=O)N(C)[C@@H](CCCNC(=N)N)C(=O)N[C@@H](CO)C(=O)N[C@@H](CC(=O)O)C(=O)N[C@@H]([C@@H](C)O)C(=O)N[C@@H](CC(C)C)C(=O)N[C@H](C(=O)N[C@@H](Cc2ccc3ccccc3c2)C(=O)N[C@@H](CCc2ccccc2)C(=O)N[C@H](CCCCN)C(N)=O)C(C)(C)SSC1(C)C
For B16, the IC50 [1] was over 10 nM.

B17: SEQ ID NO: 51 (peptide)
peptide: Ac-[Pen][NMeR]SDTL[Pen]W[Aic][dK]-NH2
modifications: disulfide 1-7
SMILES: CC(=O)N[C@@H]1C(=O)N(C)[C@@H](CCCNC(=N)N)C(=O)N[C@@H](CO)C(=O)N[C@@H](CC(=O)O)C(=O)N[C@@H]([C@@H](C)O)C(=O)N[C@@H](CC(C)C)C(=O)N[C@H](C(=O)N[C@@H](Cc2c[nH]c3ccccc23)C(=O)NC2(C(=O)N[C@H](CCCCN)C(N)=O)Cc3ccccc3C2)C(C)(C)SSC1(C)C
B17 gave an IC50 [1] of over 25 nM.

B18: SEQ ID NO: 55 (peptide)
peptide: Ac-[Pen][NMeR]SDTL[Pen]W[dE][Dap]-NH2
modifications: disulfide 1-7
SMILES: CC(=O)N[C@@H]1C(=O)N(C)[C@@H](CCCNC(=N)N)C(=O)N[C@@H](CO)C(=O)N[C@@H](CC(=O)O)C(=O)N[C@@H]([C@@H](C)O)C(=O)N[C@@H](CC(C)C)C(=O)N[C@H](C(=O)N[C@@H](Cc2c[nH]c3ccccc23)C(=O)N[C@H](CCC(=O)O)C(=O)N[C@@H](CN)C(N)=O)C(C)(C)SSC1(C)C
B18 was tested, and the IC50 [2] was over 100 nM.

B19: SEQ ID NO: 56 (peptide)
peptide: Ac-[Pen][NMeR]SDTL[Pen]W[dE][Dab]-NH2
modifications: disulfide 1-7
SMILES: CC(=O)N[C@@H]1C(=O)N(C)[C@@H](CCCNC(=N)N)C(=O)N[C@@H](CO)C(=O)N[C@@H](CC(=O)O)C(=O)N[C@@H]([C@@H](C)O)C(=O)N[C@@H](CC(C)C)C(=O)N[C@H](C(=O)N[C@@H](Cc2c[nH]c3ccccc23)C(=O)N[C@H](CCC(=O)O)C(=O)N[C@@H](CCN)C(N)=O)C(C)(C)SSC1(C)C
B19 was tested, and the IC50 [2] was over 500 nM.

B20: SEQ ID NO: 59 (peptide)
peptide: Ac-[Pen][NMeR]SDTL[Pen]WE[Dap]-NH2
modifications: disulfide 1-7
SMILES: CC(=O)N[C@@H]1C(=O)N(C)[C@@H](CCCNC(=N)N)C(=O)N[C@@H](CO)C(=O)N[C@@H](CC(=O)O)C(=O)N[C@@H]([C@@H](C)O)C(=O)N[C@@H](CC(C)C)C(=O)N[C@H](C(=O)N[C@@H](Cc2c[nH]c3ccccc23)C(=O)N[C@@H](CCC(=O)O)C(=O)N[C@@H](CN)C(N)=O)C(C)(C)SSC1(C)C
Work on B20 yielded an IC50 [2] of over 10000 nM.

B21: SEQ ID NO: 60 (peptide)
peptide: Ac-[Pen][NMeR]SDTL[Pen]WE[Dap]
modifications: disulfide 1-7; also: C-terminus written Dap-Ac, acetyl place unclear
With B21 the IC50 [2] was over 1000 nM.

B22: SEQ ID NO: 61 (peptide)
peptide: Ac-[Pen][NMeR]SDTL[Pen]WE[Dab]-NH2
modifications: disulfide 1-7
SMILES: CC(=O)N[C@@H]1C(=O)N(C)[C@@H](CCCNC(=N)N)C(=O)N[C@@H](CO)C(=O)N[C@@H](CC(=O)O)C(=O)N[C@@H]([C@@H](C)O)C(=O)N[C@@H](CC(C)C)C(=O)N[C@H](C(=O)N[C@@H](Cc2c[nH]c3ccccc23)C(=O)N[C@@H](CCC(=O)O)C(=O)N[C@@H](CCN)C(N)=O)C(C)(C)SSC1(C)C
With B22 the IC50 [2] was over 1000 nM.

B23: SEQ ID NO: 62 (peptide)
peptide: Ac-[Pen][NMeR]SDTL[Pen]WE[Dab]
modifications: disulfide 1-7; also: C-terminus written Dab-Ac, acetyl place unclear
In the case of B23, the IC50 [2] is reported as over 1000 nM.

B24: SEQ ID NO: 63 (peptide)
peptide: Ac-[Pen][NMeR]SDTL[Pen]W[dE][Dap]
modifications: disulfide 1-7; also: C-terminus written Dap-Ac, acetyl place unclear
Work on B24 yielded an IC50 [2] of over 1000 nM.

B25: SEQ ID NO: 64 (peptide)
peptide: Ac-[Pen][NMeR]SDTL[Pen]W[dE][Dab]
modifications: disulfide 1-7; also: C-terminus written Dab-Ac, acetyl place unclear
In the case of B25, the IC50 [2] is reported as over 1000 nM.
